The domain aggregation screens of Martell et al. (2025)

Experiment: soluble fraction after stress (log2 fold change); higher = more stays soluble; pooled small domains, quantitative proteomics
Conditions: stress: 50 degC
How it was run: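 Pooled custom libraries of small protein domains were measured in a high-throughput format, with quantitative proteomics as the read-out. Each library was stressed at 50°C. Aggregation propensity is given as the base-two logarithm of the fold change in how much of each protein stays soluble after the stress. Higher values mean a larger share of the protein remains in solution.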

HMLQVSDENFVVELVQKVLLDNPSSVQEYKNGKESVLQFLIGQAMKASKGTANPQIVKEIMLKLL
soluble fraction (log2): -0.314

HMLQYSQEIEEAQKILQNLGLYKGEIDGINGVNTKSAIKEFQRKSGLIIDGILGPNTTSALSKGAESYITV
soluble fraction (log2): 0.112

HMLRISEEVWALVEKTLREDWSPEQVSGKLKASGISVSHERIYQHIYADKRVGGTLWTHLRR
soluble fraction (log2): -2.3

HMLRLLEIIAGNEVSKEINSQVIKYYKALKNKKIEEINNLTPSYNKLIISFDLKKKNFREMKKIIEDISIN
soluble fraction (log2): -0.162

HMLRPEEMIYHEMLDAILDRRLEPGMKLVEEDLAKTFGVSRARIRATFLQLAHDKLINLVPNRGAFVAEP
soluble fraction (log2): -1.77

HMLRRNQVQSQVIPRENGSYVVELQLRDDVDSILRLELTAATEAMARDLADRFRQDPEGVYTRLLSALY
soluble fraction (log2): -0.789

HMLRTEYLTVNYAKASEVAELVTASGFLSSRGSITVDERTNTLLLQDTATNIDEVRFMLEQLD
soluble fraction (log2): -0.443

HMLSADLLDKIQRIDSLEQQGKYAQAEKEARALLSDPSITPSERASVQNILSSIARKKAAQAQ
soluble fraction (log2): 0.11

HMLSAGTTEQRLAMLQYQWEKQSETYSALGPNNGVVTLGQIRNTMAKIAELAGFKDAAQFWMPVPMDYDV
soluble fraction (log2): -0.323

HMLSAPMPGTVLEVHVKEGQRVREGQTLVVMEAMKMEHRVQAPRAGVVTKLHYSEGDRVDVGAILVEIG
soluble fraction (log2): 0.0919

HMLSAQEIPVEDIATRDFVLAEDVVSAKKVLLLPKGVDLSWFGSAKKRLVQRLKSEGVTHIRVFA
soluble fraction (log2): -0.0541

HMLSFSEAERAVLSLLNRRPDLSAKALASELAVSARTVERYLQSLQQKGKLLRVGAKKGGYWQV
soluble fraction (log2): -0.478

HMLSGNLTADAHVHRGLQALSDGRNEDALVDFTKATEVQADFAEAWNKRATVNYLLGRYDAAVLDIQKTLE
soluble fraction (log2): 0.19

HMLSLDDAAFERYDLTMREREVLLLLLNRLTYEEIAERLFISTNTVKTHVGNVYKKTGVSSRKELVSK
soluble fraction (log2): -1.08

HMLSLGQQIRNHVLSRIESGEWPEGSRIPSEAKLVELLGASRMTIHIALRDLSAEGVLLRKQGAGTFVAPR
soluble fraction (log2): -2.47

HMLSRKEVFTVSQKDIEKNPIGAADKFFDGHVGIHKLLVVDEEDRLRGLFTLSDIERINDEQ
soluble fraction (log2): 0.0269

HMLSRTYDSSGPDVKIRGTAQTVADKYMSLARDAQSSGDRVMAENYLQHAEHYNRIIAAAQAQ
soluble fraction (log2): 0.254

HMLSSEQQQKLDSLSRKELEVAELVSHGATNKMIARTMNITERTVKAHLTAIFQKMNIPDRLSLAIFFRDL
soluble fraction (log2): -2.44

HMLSSNEIKEIFALFDKSNRGQVATSELGTLVRALNLNPTETEITDMQSKVDPKGQGSFTLDVLEKVVQD
soluble fraction (log2): 0.206

HMLSVNREQVEQSLKQEWGFDYDKNLRAAQRAIDVYGDDDLKLLLNGPTGNDPAIVKLFARLGGEVTEE
soluble fraction (log2): -0.00909

HMLSYIELTVDNTSKASYIMTDKMKINNFKIIGNNTIRVYENKVSPQDISRTLSMNNVSIEALGRKS
soluble fraction (log2): -1.03

HMLSYNINEESKSSIMNVNVLKNNFASIDVEKLQNIIFTTFKKYNYYLNDFSSMNLLLHLLIIVDREL
soluble fraction (log2): 0.337

HMLTEKEEEVMQILWDNGPLFVREILEFYPDPKPHYNTVSTVIRVLEEKNFASHKAYGNTYQYFP
soluble fraction (log2): -0.0146

HMLTLEDMTRINSIISPRIKKGQSLYHIAKNNGDELNISESTLRRLVMTGEMDAGIIDLPQAVK
soluble fraction (log2): -0.138

HMLTLTNREKQVLVYIAKGHQVAQIAYELKLSGHTINGYIKTIYQKLHISSRAEAALLAQQYGL
soluble fraction (log2): -3.56

HMLTRQNFHGIKLPTIHEYIDLLNSRVNANIDKTNNWQSSVSHLRTYLNSHNINAVSKESINNYIDERLN
soluble fraction (log2): -0.572

HMLTRRQSEVLDFIRQFAESESMPPTLHEIAKGMGFSSDNAARDHVRALARKGAIDLVGGTSRGIRLR
soluble fraction (log2): -0.354

HMLTRSASREELDQLLKRLRQNLKQKNFFWPPDKEKSLVLYLENLFSKFPLNSSDIRFLHGIIRTLSEK
soluble fraction (log2): -0.178

HMLVGKSVIMKTNESSSGMIAGKVNYWENIDGKIYLGINGKLYDIADVDTVLDNDYYDKLVN
soluble fraction (log2): -0.347

HMLVKKYTEEETGRQAELSKQLAELSKAYYNTGNSMVDDAVFDKLRDELSSLEKESGFAYDISPNVS
soluble fraction (log2): -0.953

HMLVNNSTIETVIDFANVKFGMELTKDQVSEQLRNLSFSQTLKLINSMKADDNDAFSEIIDL
soluble fraction (log2): -0.672

HMLVSFGDHLKRYIYERAGIEEPFGEVPQEIYRDIAVDSFRETYTPKSMNPTSTKLPALVNNWLIQ
soluble fraction (log2): -0.746

HMLVSVSNYLGQNVDTVKSDLEALGLVVKLKEQQTDRESENGAVLEQSIEGGSKVSAGTPITLTYGK
soluble fraction (log2): 0.187

HMLWTHIALPVRSLDDTMAFYDKYTTLENIHERQDPETNMRSVWLANPGDKTEQAARFVLVLI
soluble fraction (log2): -0.116

HMMTDAEKTFIFFSHLSSVEDHIAYGDKQFYMSLFWQHENKRELSSSQLYHLERLYNKYSMEEIEKKEEFS
soluble fraction (log2): -0.78

HMMTDEEFLRIAGYMKQRYGIDLGQKKVIMNGRLENHIKSGGWSSFHAFMNDLEKDSSGKLEKELVNLLTT
soluble fraction (log2): 0.0314

HMMTLEESYKLLQVSHNASDIEITKAFKKLALLYHPDKNPSNIDWANKAMASINVAYNTIITHRFKEK
soluble fraction (log2): -0.628

HMNAAYDEELDFIFSLSEKGKWEEAEAEIGLLLQKHPEDATLQRIGEWVTTQKILLRQQAVEDRIRS
soluble fraction (log2): -0.0763
